Measurements published in patent publication US10441541B2, “Methods and compositions for treating osteoarthritis and promoting cartilage formation” (New York University, priority 2015, dated 2019).

Legend:
[1] = tested on: neonatal murine chondrocytes; test: Aggrecan expression in cultured chondrocytes, Alcian Blue staining; type: cell-based; conditions: 1 μM
From the text: (Gosset et al., Nat Protoc 2008; 3:1253-1260). […] Following digital quantitation of alcian-blue stained aggrecan in the tissue wells, aggrecan levels are expressed as % control (±SEM) as provided in FIG. 4B.

A3 adenosine receptor = target: T1, A3 adenosine receptor (Homo sapiens, UniProt P0DMS8); conditions: cited from earlier work
T1 sequence (P0DMS8 1-318): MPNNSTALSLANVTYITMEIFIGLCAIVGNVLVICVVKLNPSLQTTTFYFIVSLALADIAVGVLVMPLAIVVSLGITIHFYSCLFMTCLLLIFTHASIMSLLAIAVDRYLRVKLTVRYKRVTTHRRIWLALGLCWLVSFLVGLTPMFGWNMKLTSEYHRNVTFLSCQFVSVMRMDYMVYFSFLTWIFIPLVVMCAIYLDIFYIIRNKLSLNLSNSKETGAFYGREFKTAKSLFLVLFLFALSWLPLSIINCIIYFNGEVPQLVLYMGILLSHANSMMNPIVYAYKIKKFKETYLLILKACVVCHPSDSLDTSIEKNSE

[2] = tested on: rat tibial plateau explants; test: Adenosine release from tibial plateau explants, with and without mechanical loading; type: cell-based
Procedure: 14 to 19 week old male Sprague-Dawly rats were sacrificed and their tibias were harvested. The soft tissue was removed from the bone and the proximal tibia was cut in the growth plate region by using a Low Speed Diamond Wheel Saw-Model 650 (South Bay Technologies, CA, USA). Tibia surface was cut separating the medial and the lateral condyle. Samples were incubated in media containing DMEM-F12, FBS 10%, 100 ug/ml of ascorbic acid, 2 mM of […], 1% of Penicillin, Streptomycin and amphotericin. The explants were incubated with or without IL-1β (5 ng/ml) for 24 hours. After incubation the samples were placed in a glass plate in new media without FBS. The loading was programmed using the block waveform feature in Wintest 7 software of BOSE Electroforce 3200 system (Bose Inc., MN, USA). The specimens were preloaded with uniaxial compressive load that was applied at 0.005 mm/s loading rate under displacement control up to 0.01 mm. Samples undergo cyclic load at 2 Hz for 1800 cycles at 1.5N compressive load under load control. Dwell for 2700s immediately after the end of 1800th cycle. Media samples were collected after 1, 10 and 15 minutes during loading and 15 and 30 minutes after loading. Samples collected for ATP assay were stored immediately on ice.

[3] = tested on: primary murine chondrocytes; test: ATP and adenosine content and release of primary chondrocytes after IL-1β; type: cell-based, mouse; conditions: 5 ng/ml for 24 hours
Procedure: (§1) Articular chondrocytes were obtained from C57BL/6 WT or A2AKO newborn mice following a protocol previously described (Thirion et al., Methods in Molecular Medicine 2004; 100:1-14), Primary chondrocytes (80% confluence) were starved for 5h. Cells were treated for 24h with mouse recombinant IL-1β (5 ng/ml) in DMEM containing 10% FBS and 1% Penicillin-Steptomycin. For intracellular ATP assay, cells were collected and lysed with RIPA buffer containing proteases and phosphatase inhibitors. […] ATP was assayed using a bioluminescent ATP determination kit following the manufacturer's instructions. Adenosine was extracted and tested by HPLC as previously described. ATP and adenosine data were normalized following protein quantification.

murine chondrocytes = test: Expression of adenosine-related enzymes and transporters in chondrocytes (RT-PCR, western blot, immunofluorescence); type: cell-based, mouse
Procedure: as §1
After cell treatments, the total protein extracts were collected and stored at −80° C. Total protein fractions were quantified using the BCA kit (Thermo Scientific). Western blotting was performed by electrophoresing […] protein through a 10% polyacrylamide gel followed by transfer of proteins to nitrocellulose membranes. […] Membranes were scanned with Li-cor Odyssey equipment and the intensities of the protein bands were quantified by densitometric analysis using Image Studio 2.0 38 software. […]

For CCNC(=O)[C@H]1O[C@@H](n2cnc3c(N)nc(NCCc4ccc(CCC(=O)O)cc4)nc32)[C@H](O)[C@@H]1O [CGS21680], the aggrecan expression ([1]; Alcian Blue staining of cultured chondrocyte matrix, preliminary experiments) was “nearly two-fold increase” and the “amount of alcian blue-stained material in wells” value ([1]; in the absence or presence of IL-1) was “greatest amount of alcian blue-stained material”.

In the case of Nc1ncnc2c1ncn2[C@@H]1O[C@H](CO)[C@@H](O)[C@H]1O [adenosine], the affinity for adenosine (A3 adenosine receptor) is listed as “low-micromolar range”.

B1: IL-1β: Mouse and rat recombinant Il-1β from R&D Systems, inflammatory stimulus (protein, UniProt P10749 118-269, looked up)
Interleukin-1 beta: VPIRQLHYRLRDEQQKSLVLSDPYELKALHLNGQNINQQVIFSMSFVQGEPSNDKIPVALGLKGKNLYLSCVMKDGTPTLQLESVDPKQYPKKKMEKRFVFNKIEVKSKVEFESAEFPNWYISTSQAEHKPVFLGNNSGQDIIDFTMESVSS
modifications: rat protein also used
notes: Mouse and rat recombinant Il-1β from R&D Systems, inflammatory stimulus
For B1, the “adenosine release from cartilage explants” value ([2]; explants without loading) was “reduced adenosine release”, the “adenosine release after weight loading” value ([2]; pre-treatment 5 ng/ml for 24 hours, loading within physiologic range, n=5, without pre-treatment 1657±177 nM) was 960 ± 57 nM and the “ATP released into the supernates” value [3] was 66±3 % of control. For the same molecule, the “adenosine concentration in the supernates” value [3] was 65 % of control, the “intracellular ATP” value [3] was 61±9 % of control and the “adenosine concentration in the supernates” value ([3]; n=9, control 143±14 nM) was 94 ± 14 nM. The “message of ENTPD1, NT5E, PANX1, SLC29A1, SLC29A2 and ANKH” value (murine chondrocytes; 5 ng/ml for 24 hours, RT-PCR, n=4) was “significantly decrease message” and the “NT5E protein expression and localization on chondrocyte surface” value (murine chondrocytes; 5 ng/ml, western blot and immunofluorescence) was “decreased NTSE protein expression and its localization on chondrocyte surface”.
